Assay results from US20150017095A1 (AbbVie / Abbott, published 2015).

How the values were obtained:
[1] = biological target: T1, Recombinant Human IL-6 sR (human, UniProt P08887 20-358); assay: BIACORE SPR, antibody captured, antigen in flow
T1 construct: domain: IL-6 sR; Bought reagent; also called IL-6R
T1 sequence (looked up): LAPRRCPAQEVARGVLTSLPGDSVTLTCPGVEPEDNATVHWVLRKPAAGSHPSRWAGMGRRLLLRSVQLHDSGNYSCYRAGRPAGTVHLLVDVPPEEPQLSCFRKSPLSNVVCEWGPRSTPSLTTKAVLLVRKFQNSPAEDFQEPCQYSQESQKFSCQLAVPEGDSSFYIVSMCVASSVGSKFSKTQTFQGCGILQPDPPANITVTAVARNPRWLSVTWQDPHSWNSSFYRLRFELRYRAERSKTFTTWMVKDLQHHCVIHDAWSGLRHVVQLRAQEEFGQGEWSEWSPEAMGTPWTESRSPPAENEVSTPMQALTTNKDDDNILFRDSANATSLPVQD
Procedure: (§1) The BIACORE assay (Biacore, Inc, Piscataway, N.J.) determines the affinity of antibodies or DVD-Ig with kinetic measurements of on-rate and off-rate constants. […] All chemicals are obtained from Biacore® AB (Uppsala, Sweden) or otherwise from a different source as described in the text. For example, approximately 5000 RU of goat anti-mouse IgG, (Fcγ), fragment specific polyclonal antibody (Pierce Biotechnology Inc, Rockford, Ill.) diluted in 10 mM sodium acetate (pH 4.5) is directly immobilized across a CM5 research grade biosensor chip using a standard amine coupling kit according to manufacturer's instructions and procedures at 25 μg/ml. Unreacted moieties on the biosensor surface are blocked with ethanolamine. Modified carboxymethyl dextran surface in flowcell 2 and 4 is used as a reaction surface. Unmodified carboxymethyl dextran without goat anti-mouse IgG in flow cell 1 and 3 is used as the reference surface. For kinetic analysis, rate equations derived from the 1:1 Langmuir binding model are fitted simultaneously to association and dissociation phases of all eight injections (using global fit analysis) with the use of Biaevaluation 4.0.1 software. Purified antibodies or DVD-Ig are diluted in HEPES-buffered saline for capture across goat anti-mouse IgG specific reaction surfaces. Antibodies or DVD-Ig to be captured as a ligand (25 μg/m) are injected over reaction matrices at a flow rate of 5 μl/min. The association and dissociation rate constants, kₒₙ (M⁻¹s⁻¹) and koff (s⁻¹) are determined under a continuous flow rate of 25 μl/min. Rate constants are derived by making kinetic binding measurements at different antigen concentrations ranging from 10-200 nM. The equilibrium dissociation constant (M) of the reaction between antibodies or DVD-Igs and the target antigen is then calculated from the kinetic rate constants by the following formula: KD=koff/kₒₙ. Binding is recorded as a function of time and kinetic rate constants are calculated.

[2] = biological target: T1, Recombinant Human IL-6 sR; assay: direct bind ELISA, antigen coated on plate
Procedure: (§2) Enzyme Linked Immunosorbent Assays to screen for antibodies that bind a desired target antigen were performed as follows. High bind ELISA plates (Corning Costar #3369, Acton, Mass.) were coated with 100 μL/well of 10 μg/ml of desired target antigen (R&D Systems, Minneapolis, Minn.) or desired target antigen extra-cellular domain/FC fusion protein (R&D Systems, Minneapolis, Minn.) or monoclonal mouse anti-polyHistidine antibody (R&D Systems # MAB050, Minneapolis, Minn.) in phosphate buffered saline (10×PBS, Abbott Bioresearch Center, Media Prep# MPS-073, Worcester, Mass.) overnight at 4° C. Plates were washed four times with PBS containing 0.02% Tween 20. Plates were blocked by the addition of 300 μL/well blocking solution (non-fat dry milk powder, various retail suppliers, diluted to 2% in PBS) for ½ hour at room temperature. Plates were washed four times after blocking with PBS containing 0.02% Tween 20.
(§3) Plates were washed 4 times with PBS containing 0.02% Tween 20.
(§4) One hundred microliters of enhanced TMB solution (Neogen Corp. #308177, K Blue, Lexington, Ky.) was added to each well and incubated for 10 minutes at room temperature. The reaction was stopped by the addition of 50 μL 1N sulphuric acid.

[3] = biological target: T1, Recombinant Human IL-6 sR; assay: direct bind ELISA, antigen coated on plate (C-terminal VD)
Procedure: as §2, §3, §4

[4] = biological target: T1, Recombinant Human IL-6 sR; assay: BIACORE SPR, DVD-Ig captured, antigen in flow (C-terminal VD)
Procedure: as §1

[5] = biological target: Recombinant Human IL-15 (human, UniProt P40933 49-162); assay: BIACORE SPR, DVD-Ig captured, antigen in flow (N-terminal VD)
Procedure: as §1

[6] = biological target: Recombinant Human β-NGF (human, UniProt P01138 122-239, limits assumed); assay: BIACORE SPR, DVD-Ig captured, antigen in flow (C-terminal VD); BIACORE, DVD-Ig captured, NGF in flow, 25 C; C-terminal VD
Procedure: as §1

Sequence of Recombinant Human IL-15 (P40933 49-162 limits assumed): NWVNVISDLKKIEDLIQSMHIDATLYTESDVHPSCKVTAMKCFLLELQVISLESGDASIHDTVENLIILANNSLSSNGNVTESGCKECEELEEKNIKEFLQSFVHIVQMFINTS
Sequence of Recombinant Human β-NGF (P01138 122-239 limits assumed): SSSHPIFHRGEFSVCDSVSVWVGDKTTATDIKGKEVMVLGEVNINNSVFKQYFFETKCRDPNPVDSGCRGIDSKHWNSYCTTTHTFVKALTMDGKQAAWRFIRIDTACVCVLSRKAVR

B1: AB054 anti-IL-6R parent antibody (antibody, human IgG1, V domains shown)
VH: EVQLQESGPGLVRPSQTLSLTCTVSGYSITSDHAWSWVRQPPGRGLEWIGYISYSGITTYNPSLKSRVTMLRDTSKNQFSLRLSSVTAADTAVYYCARSLARTTAMDYWGQGSLVTVSS
VL: DIQMTQSPSSLSASVGDRVTITCRASQDISSYLNWYQQKPGKAPKLLIYYTSRLHSGVPSRFSGSGSGTDFTFTISSLQPEDIATYYCQQGNTLPYTFGQGTKVEIKR
Kd [1]: 0.448 nM | koff [1]: 0.00016 s⁻¹ | kon [1]: 357000 M⁻¹ s⁻¹ | EC50 [2]: 1.75 nM

B2: DVD151 (PGE2 / IL-6R DVD-Ig) (bispecific antibody, human IgG1)
VH: EVQLVQSGAEVKKPGASVKVSCKASGYTFTKYWLGWVRQAPGQGLEWMGDIYPGYDYTHYNEKFKDRVTLTTDTSTSTAYMELRSLRSDDTAVYYCARSDGSSTYWGQGTLVTVSSASTKGPEVQLQESGPGLVRPSQTLSLTCTVSGYSITSDHAWSWVRQPPGRGLEWIGYISYSGITTYNPSLKSRVTMLRDTSKNQFSLRLSSVTAADTAVYYCARSLARTTAMDYWGQGSLVTVSS
VL: DVLMTQTPLSLPVTPGEPASISCTSSQNIVHSNGNTYLEWYLQKPGQSPQLLIYKVSNRFSGVPDRFSGSGSGTDFTLKISRVEAEDVGVYYCFQVSHVPYTFGGGTKVEIKRTVAAPDIQMTQSPSSLSASVGDRVTITCRASQDISSYLNWYQQKPGKAPKLLIYYTSRLHSGVPSRFSGSGSGTDFTFTISSLQPEDIATYYCQQGNTLPYTFGQGTKVEIKR
notes: Outer domain is AB048 (PGE2), inner domain is AB054 (IL-6R); also called VD151H; VD151L
EC50 [3]: 26500 nM | Kd [4]: 5.94 nM | koff [4]: 0.00015 s⁻¹ | kon [4]: 25300 M⁻¹ s⁻¹

B3: DVD154 (IL-15 / PGE2 DVD-Ig) (bispecific antibody)
VH: EVQLVQSGAEVKKPGESLKISCKVSGYFFTTYWIGWVRQMPGKGLEYMGIIYPGDSDTRYSPSFQGQVTISADKSISTAYLQWSSLKASDTAMYYCARGGNWNCFDYWGQGTLVTVSSASTKGPEVQLVQSGAEVKKPGASVKVSCKASGYTFTKYWLGWVRQAPGQGLEWMGDIYPGYDYTHYNEKFKDRVTLTTDTSTSTAYMELRSLRSDDTAVYYCARSDGSSTYWGQGTLVTVSS
VL: EIVLTQSPGTLSLSPGERATLSCRASQSVSSSYLAWYQQKPGQAPRLLIYGASRRATGIPDRFSGSGSGTDFTLTISRLEPEDFAVYYCQRYGSSHTFGQGTKLEISRTVAAPDVLMTQTPLSLPVTPGEPASISCTSSQNIVHSNGNTYLEWYLQKPGQSPQLLIYKVSNRFSGVPDRFSGSGSGTDFTLKISRVEAEDVGVYYCFQVSHVPYTFGGGTKVEIKR
notes: Outer domain is AB049 (IL-15), inner domain is AB048 (PGE2); also called VD154H; VD154L
Kd [5]: 4.89 nM | koff [5]: 0.00198 s⁻¹ | kon [5]: 404000 M⁻¹ s⁻¹

B4: DVD163 (PGE2 / NGF DVD-Ig) (bispecific antibody)
VH: EVQLVQSGAEVKKPGASVKVSCKASGYTFTKYWLGWVRQAPGQGLEWMGDIYPGYDYTHYNEKFKDRVTLTTDTSTSTAYMELRSLRSDDTAVYYCARSDGSSTYWGQGTLVTVSSASTKGPQVQLQESGPGLVKPSETLSLTCTVSGFSLIGYDLNWIRQPPGKGLEWIGIIWGDGTTDYNSAVKSRVTISKDTSKNQFSLKLSSVTAADTAVYYCARGGYWYATSYYFDYWGQGTLVTVSS
VL: DVLMTQTPLSLPVTPGEPASISCTSSQNIVHSNGNTYLEWYLQKPGQSPQLLIYKVSNRFSGVPDRFSGSGSGTDFTLKISRVEAEDVGVYYCFQVSHVPYTFGGGTKVEIKRTVAAPDIQMTQSPSSLSASVGDRVTITCRASQSISNNLNWYQQKPGKAPKLLIYYTSRFHSGVPSRFSGSGSGTDFTFTISSLQPEDIATYYCQQEHTLPYTFGQGTKLEIKR
notes: Outer domain is AB048 (PGE2), inner domain is AB020 (NGF); also called VD163H; VD3163L
Kd [6]: 0.122 nM | koff [6]: 1.03e-06 s⁻¹ | kon [6]: 8400 M⁻¹ s⁻¹
